Laboratory results: patent publication US20170183403A1
Where two headings read alike, the source gives them in different places. One block for each binder: values may come before it.

How the values were obtained:
Reference peptide no. 54 [1] = experiment: peptide microarray (RepliTope), Ala mutagenesis set
Reference peptide no. 53 [2] = experiment: as above
[3] = molecular target: human interleukin-2 (human) (UniProt P60568); experiment: SPR, antibody amine-coupled on GLM chip, hIL-2 in solution
Reference peptide no. 48 = molecular target: T1, Reference peptide no. 48; experiment: peptide microarray (RepliTope), Ala mutagenesis set
T1 sequence (peptide): PKLTRMLTFKFAMPK

Reference peptide no. 43 = molecular target: T2, Reference peptide no. 43; experiment: as above
T2 sequence (peptide): YKNPKLTRMLTAKFY

Reference peptide no. 42 = molecular target: T3, Reference peptide no. 42; experiment: as above
T3 sequence (peptide): INNYKNPKLTRMLTA

Reference peptide no. 47 = molecular target: T4, Reference peptide no. 47; experiment: as above
T4 sequence (peptide): YKNPKLTRMLTFKFA

Reference peptide no. 53 [4] = experiment: as above; remark: listed apart in the source
Reference peptide no. 54 [5] = experiment: as above; remark: listed apart in the source
Reference peptide no. 13 [6] = molecular target: T5, Reference peptide no. 13; experiment: as above
T5 sequence (peptide): TRMLTFKFYMPKKAT

Reference peptide no. 49 = molecular target: T6, Reference peptide no. 49; experiment: as above
T6 sequence (peptide): TRMLTFKFAMPKKAT

Reference peptide no. 44 = molecular target: T7, Reference peptide no. 44; experiment: as above
T7 sequence (peptide): PKLTRMLTAKFYMPK

Reference peptide no. 12 [7] = molecular target: T8, Reference peptide no. 12; experiment: as above
T8 sequence (peptide): PKLTRMLTFKFYMPK

Reference peptide no. 11 [8] = molecular target: T9, Reference peptide no. 11; experiment: as above
T9 sequence (peptide): YKNPKLTRMLTFKFY

Reference peptide no. 10 [9] = molecular target: T10, Reference peptide no. 10; experiment: as above
T10 sequence (peptide): INNYKNPKLTRMLTF

Reference peptide no. 52 = molecular target: T11, Reference peptide no. 52; experiment: as above
T11 sequence (peptide): YKNPKLTRMLTAKFA

Reference peptide no. 45 = molecular target: T12, Reference peptide no. 45; experiment: as above
T12 sequence (peptide): TRMLTAKFYMPKKAT

[10] = molecular target: human interleukin-2 (human) (UniProt P60568); experiment: sandwich ELISA, biotinylated MAB602 on hIL-2 captured by coated 5344, no competitor
murine IL-2 (mouse) = murine IL-2 (mouse) (UniProt P04351); experiment: SPR, MAB602 amine-coupled on chip, mIL-2 at 1 nM or more
Reference peptide no. 23 = molecular target: T13, Reference peptide no. 23; experiment: peptide microarray (RepliTope)
T13 sequence (peptide): EEVLNLAQSKNFHLR

Reference peptide no. 13 [11] = molecular target: T5, Reference peptide no. 13; experiment: peptide microarray (RepliTope)
Reference peptide no. 25 = molecular target: T14, Reference peptide no. 25; experiment: peptide microarray (RepliTope)
T14 sequence (peptide): AQSKNFHLRPRDLIS

Reference peptide no. 26 = molecular target: T15, Reference peptide no. 26; experiment: peptide microarray (RepliTope)
T15 sequence (peptide): KNFHLRPRDLISNIN

Reference peptide no. 24 = molecular target: T16, Reference peptide no. 24; experiment: peptide microarray (RepliTope)
T16 sequence (peptide): LNLAQSKNFHLRPRD

Reference peptide no. 12 [12] = molecular target: T8, Reference peptide no. 12; experiment: peptide microarray (RepliTope)
Reference peptide no. 11 [13] = molecular target: T9, Reference peptide no. 11; experiment: peptide microarray (RepliTope)
Reference peptide no. 10 [14] = molecular target: T10, Reference peptide no. 10; experiment: peptide microarray (RepliTope)
Reference peptide no. 22 = molecular target: T17, Reference peptide no. 22; experiment: peptide microarray (RepliTope)
T17 sequence (peptide): KPLEEVLNLAQSKNF

Sequence of human interleukin-2 (human) (P60568 21-153 limits assumed): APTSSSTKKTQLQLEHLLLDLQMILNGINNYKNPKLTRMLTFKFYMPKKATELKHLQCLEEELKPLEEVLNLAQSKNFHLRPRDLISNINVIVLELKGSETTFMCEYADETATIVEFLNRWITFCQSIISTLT
Sequence of murine IL-2 (mouse) (P04351 21-169 limits assumed): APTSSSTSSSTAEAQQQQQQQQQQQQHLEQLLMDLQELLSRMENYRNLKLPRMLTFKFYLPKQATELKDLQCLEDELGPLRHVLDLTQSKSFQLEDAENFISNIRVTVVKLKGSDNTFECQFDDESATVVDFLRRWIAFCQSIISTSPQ

B1: NARA1 (antibody, mouse IgG2a, kappa)
heavy: QVQLQQSGAELVRPGTSVKVSCKASGYAFTNYLIEWVKQRPGQGLEWIGVINPGSGGTNYNEKFKGKATLTADKSSSTAYMQLSSLTSDDSAVYFCARWRGDGYYAYFDVWGAGTTVTVSSAKTTAPSVYPLAPVCGDTTGSSVTLGCLVKGYFPEPVTLTWNSGSLSSGVHTFPAVLQSDLYTLSSSVTVTSSTWPSQSITCNVAHPASSTKVDKKIEPRGPTIKPCPPCKCPAPNLLGGPSVFIFPPKIKDVLMISLSPIVTCVVVDVSEDDPDVQISWFVNNVEVHTAQTQTHREDYNSTLRVVSALPIQHQDWMSGKEFKCKVNNKDLPAPIERTISKPKGSVRAPQVYVLPPPEEEMTKKQVTLTCMVTDFMPEDIYVEWTNNGKTELNYKNTEPVLDSDGSYFMYSKLRVEKKNWVERNSYSCSVVHEGLHNHHTTKSFSRTPGK
light: not shown
- signal intensity after subtraction of control signal (Reference peptide no. 54 [1]): 0 AU
- signal intensity after subtraction of control signal (Reference peptide no. 53 [2]): 24 AU

- Kd [3]: 9.7 nM
- koff [3]: 0.000494 s⁻¹
- absorbance (OD450) [10]: 1.1 OD450
- response units (RU) (murine IL-2 (mouse)): > 10 RU
- signal intensity after subtraction of control signal (Reference peptide no. 23): 13300 AU
- signal intensity after subtraction of control signal (Reference peptide no. 13 [11]): 5250 AU
- signal intensity after subtraction of control signal (Reference peptide no. 25): 5220 AU
- signal intensity after subtraction of control signal (Reference peptide no. 26): 7510 AU
- signal intensity after subtraction of control signal (Reference peptide no. 24): 3290 AU
- signal intensity after subtraction of control signal (Reference peptide no. 12 [12]): 28800 AU
- signal intensity after subtraction of control signal (Reference peptide no. 11 [13]): 49700 AU
- signal intensity after subtraction of control signal (Reference peptide no. 10 [14]): 46000 AU
- signal intensity after subtraction of control signal (Reference peptide no. 22): 5000 AU
B2: MAB602 (antibody, from another filing, IgG2a, V domains shown)
VH: EVQLQESGPGLVAPSQSLSITCTVSGFSLTNYDISWIRQPPGKGLEWLGVIWTGGGTNYNSGFMSRLSITKDNSKSQVFLKMNSLQTDDTAIYYCVRQGRTPYWGQGTLVTVSA
VL: DIQVTQSPSSLSVSLGDRVTITCKASKDIYNRLAWYQQKPGNAPRLLISGATSLETGVPSRFSGSGSGKDYTLTITSLQTEDVATYYCQQFWGTPYTFGGGTKLEIKR
- signal intensity after subtraction of control signal (Reference peptide no. 48): 13400 AU
- signal intensity after subtraction of control signal (Reference peptide no. 43): 42800 AU
- signal intensity after subtraction of control signal (Reference peptide no. 42): 246 AU
- signal intensity after subtraction of control signal (Reference peptide no. 47): 21400 AU
- signal intensity after subtraction of control signal (Reference peptide no. 53 [4]): 0 AU
- signal intensity after subtraction of control signal (Reference peptide no. 54 [5]): 0 AU
- signal intensity after subtraction of control signal (Reference peptide no. 13 [6]): 5250 AU
- signal intensity after subtraction of control signal (Reference peptide no. 49): 3020 AU
- signal intensity after subtraction of control signal (Reference peptide no. 44): 5030 AU
- signal intensity after subtraction of control signal (Reference peptide no. 12 [7]): 28800 AU
- signal intensity after subtraction of control signal (Reference peptide no. 11 [8]): 49700 AU
- signal intensity after subtraction of control signal (Reference peptide no. 10 [9]): 46000 AU
- signal intensity after subtraction of control signal (Reference peptide no. 52): 13100 AU
- signal intensity after subtraction of control signal (Reference peptide no. 45): 0 AU
